Publication PMC9236144 (Molecular Biology of the Cell, 2022)

Target: Bni1FH1C (Bni1 residues 1227-1953) (S. cerevisiae, UniProt P41832 1227-1953)
Experiment: fluorescence polarisation

Sequence of Bni1FH1C (Bni1 residues 1227-1953) (P41832 1227-1953): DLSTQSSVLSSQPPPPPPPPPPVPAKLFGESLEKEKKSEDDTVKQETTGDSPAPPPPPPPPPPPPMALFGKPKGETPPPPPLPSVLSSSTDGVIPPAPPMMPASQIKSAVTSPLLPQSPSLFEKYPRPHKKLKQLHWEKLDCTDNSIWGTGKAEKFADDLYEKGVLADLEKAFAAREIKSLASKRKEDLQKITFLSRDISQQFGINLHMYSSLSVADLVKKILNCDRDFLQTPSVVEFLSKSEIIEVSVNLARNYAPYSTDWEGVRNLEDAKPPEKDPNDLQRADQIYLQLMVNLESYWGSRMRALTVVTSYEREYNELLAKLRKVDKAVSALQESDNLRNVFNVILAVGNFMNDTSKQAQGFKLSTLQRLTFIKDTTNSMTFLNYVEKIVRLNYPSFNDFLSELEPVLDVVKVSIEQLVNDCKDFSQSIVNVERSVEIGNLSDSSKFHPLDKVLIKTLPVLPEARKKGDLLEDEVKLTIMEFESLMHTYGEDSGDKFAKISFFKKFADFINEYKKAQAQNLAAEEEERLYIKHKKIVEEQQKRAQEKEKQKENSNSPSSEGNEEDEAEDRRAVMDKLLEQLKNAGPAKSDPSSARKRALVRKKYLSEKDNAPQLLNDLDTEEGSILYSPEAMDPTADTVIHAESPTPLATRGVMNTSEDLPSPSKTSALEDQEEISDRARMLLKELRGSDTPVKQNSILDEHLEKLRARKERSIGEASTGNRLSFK

- binding result: binds
B1: Bud6C (Bud6 residues 550-789) (domain or fragment, S. cerevisiae, UniProt P41697 550-788, looked up)
chain: AKNSSNRMYMEKSQTELGDLSDTLLSKVDDLQDVIEIMRKDVAERRSQPAKKKLETVSKDLENAQADVLKLQEFIDTEKPHWKKTWEAELDKVCEEQQFLTLQEELILDLKEDLGKALETFDLIKLCCEEQEKNPSRSKSNPILPIMRPGTFNQVREQVMVAVQSLNPDHDSRVEAIDKAEKMWEMERKLKASNEFDDELENFVGNSNLKKSGGFEEVERIRKQKDEANLRAYFGPGFT
